Data reported in patent US12577311 (dated 2026).
Numbering of substitutions follows the chain as printed.

B1: G39 (antibody, V domains shown)
VH: not shown
VL: QSVLTQPPSVSGAPGQRVTISCTGSSSNIGRGYNVHWYQQLPGTAPKLLIYDNTNRPSGVPARFSGSKSATSASLAITGLQADDEADYYCQSYDSGLRWVFGGGTKLTLLR
B2: G119 (antibody, V domains shown)
VH: QVQLVQSGGGLVQPGGSLRLSCAASGFPFSSYAMSWVRQAPGKGLEWVSAISANGGTTYYADSVKGRFTISRDNSKNTLYLQMNSLRAEDTAVYYCANNGNYRGAFDIWGQGTMVIVSS
VL: QSVLTQPPSVSGAPGQRVTISCTGSSSNIGAGYDVHWYQQLPGTAPKLLIYGNTNRPSGVPDRFSGSKSGTSASLAIIGLQADDEADYYCQSYDSTLRVWMFGGGTKLTVLG
B3: G40 (antibody, V domains shown)
VH: QVQLVQSGGGLVQPGGSLRLSCAASGFTFSSYAMSWVRQAPGKGLEWVSAISGSGGSTYYADSVKGRFTISRDNSKNTLYLQMNSLRAEDTAVYYCATYGDYGSLDYWGQGTLVTVSS
VL: B2 VL with G52A, T54N, I78T, D83E, T96S, V99A, M101V, T109A
B4: G9 (antibody, V domains shown)
VH: B3 VH with V5Q, Q6E, T98R, Y99S, G100H, D101S, Y102S, S104G, L105F
VL: B2 VL with A31R, D34N, I78T, D83E, A86G, T96S, R98S, V99A, M101V
B5: G45 (antibody, V domains shown)
VH: B2 VH with Q13R, M114T, I116T
VL: QSVLTQPPSVSGAPGQRITISCTGSSSNIGAGYDVHWYQQVPGKAPKVVIYGNNNRPSGVPDRFSGSKSGASASLAITGLQTEDEADYYCQSYDKSLTWVFGGGTKVTVLG
B6: G36 (antibody, V domains shown)
VH: B2 VH with Q1E, L11V, I116T
VL: B2 VL with Y33F, I78T, D83E, A86T, T96R, R98S, V99A, M101V
B7: G106 (antibody, V domains shown)
VH: B2 VH with Q1E, P28T, M114T, I116T
VL: QSVLTQPPSVSGAPGQRVTISCTGSSSNIGAGFDVHWYQQLPGTAPRLLIYGNNNRPSGVPDRFSGSKSGTSASLAITGLQAEDETDYFCQSYDSSLSAWVFGGGTKVTVLR
B8: G10 (antibody, V domains shown)
VH: B2 VH with I116T
VL: QSVLTQPPSVSGAPGQRVTISCTGSSSNIGAGYDVHWYQQLPGTAPKLLIYGNSNRPSGVPDRFSGSKSGSSASLAITGLQAEDEAHYYCQSYDRSLSWVFGGGTKLTVLG
B9: G37 (antibody, V domains shown)
VH: B2 VH with L11V, I116T
VL: B7 VL with V18I, S26R, G32D, F33Y, R47K, G52A, R112G
B10: G6 (antibody, V domains shown)
VH: QVQLVQSGGGLVQPGGSLRLSCAASEFTFGTYAMTWVRQAPGKGLEWVSAVSGSGGSTYYADSVKGRFTISRDNSRNTLYLQMNSLRADDTAVYYCARGPVLRYGFDIWGQGTMVIVSS
VL: QSVLTQPPSVSGAPGQRITISCTGSRSNIGADYDVHWYQQLPGTAPKLLIYANNNRPSGVPGRFSASKSGTSASLAISGLQAEDEADYYCQSYDSSLRAWVFGGGTKLAVLG
B11: G27 (antibody, V domains shown)
VH: QVTLKESGGGVVQPGTSLRLSCAASGFTFSNYAMTWVRQAPGKGLEWVGLISYDGSVTHYTDSVKGRFTISRDNAKNSLYLQMNTLRADDTAVYYCARGSGYQEHWGQGTLVTVSS
VL: LPVLTQPPSVSVAPGQTARITCGGNNIGSKSVEWYQQKPGQAPVLVIYYDSDRPSGIPERFSGSNSGNTATLTISRVEAGDEADYYCQVWDSSSDHHVVFGGGTKLTVLG
B12: G57 (antibody, V domains shown)
VH: QVQLVQSGGGVVQPGRSLRLSCAASGFTFSSYGMHWVRQAPGKGLEWVAVISYDGSNKYYADSVKGRFTISRDNSKNTLYLQMNSLRAEDTAVYYCAREAPYSSSLDAFDIWGQGTMVTVSS
VL: QSVLTQPPSVSGAPGQRVTISCTGSSSNIGRGYNVHWYQQLPGTAPKLLIYGNSNRPSGVPDRFSGSSSGNTASLTITGAQAEDEADYYCHSRDNNGHHIFGGGTKLTVLS
B13: G125 (antibody, V domains shown)
VH: EVQLVESGGGVVQPGRSLRLSCAASGFTFSSYGMHWVRQAPGKGLEWVSAISGSGGSTYYADSVKGRFTISRDNAKNTLYLQMNSLRAEDTAVYYCARAAVTGGFDPWGQGTLVTVSS
VL: QPGLTQPPSVSVAPGQTARITCGGDNIGRKSVHWYQQRPGQAPILVIRDDRDRPSGIPERFSGSSSVNTATLIISRVEAGDEADYYCQVWDSSSKHYVFGPGTKVTALG
B14: anti-CAIX (G36) CAR (scFv, V domains shown)
VH: B2 VH with Q1E, L11V, I116T
VL: B7 VL with R47K, N54T, F89Y, S96R, V108L, R112G

What follows are binders tested against T1, CAIX (UniProt Q16790 38-414) (assay: not given).

Point of comparison: B2, Kd 1.49 nM. Against it:
- B1 — 2.3-fold higher, 3.43 nM
- B3 — 15-fold higher, 21.8 nM
- B4 — 67-fold higher, 99.6 nM
- B5 — 8.4-fold higher, 12.5 nM
- B6 — 2.2-fold higher, 3.22 nM
- B7 — 2.1-fold higher, 3.2 nM
- B8 — within 1.5-fold, 1.62 nM
- B9 — within 1.5-fold, 1.89 nM
- B10 — 17-fold higher, 25.9 nM
- B11 — 17-fold higher, 25.1 nM
- B12 — 2.9-fold higher, 4.25 nM
- B13 — 27-fold higher, 40.3 nM

These binders were tested against T2, PE labeled CAIX protein (UniProt Q16790 38-414) (assay: FACS binding).

B14 was tested, and the EC50 was 0.132 µg/mL.

Biological target: T1, CAIX
Assay: not given
Remark: another data set of the same source

Point of comparison: B2, Kd 1.49 nM. Against it:
- B1 — 2.3-fold higher, 3.43 nM
- B3 — 15-fold higher, 21.8 nM
- B4 — 67-fold higher, 99.6 nM
- B5 — 8.4-fold higher, 12.5 nM
- B6 — 2.2-fold higher, 3.22 nM
- B7 — 2.1-fold higher, 3.2 nM
- B8 — within 1.5-fold, 1.62 nM
- B9 — within 1.5-fold, 1.89 nM
- B10 — 17-fold higher, 25.9 nM
- B11 — 17-fold higher, 25.1 nM
- B12 — 2.9-fold higher, 4.25 nM
- B13 — 27-fold higher, 40.3 nM

Biological target: T1, CAIX
Assay: not given
Remark: another data set of the same source

Point of comparison: B7, Kd 3.2 nM. Against it:
- B1 — within 1.5-fold, 3.43 nM
- B2 — 2.1-fold lower, 1.49 nM
- B3 — 6.8-fold higher, 21.8 nM
- B4 — 31-fold higher, 99.6 nM
- B5 — 3.9-fold higher, 12.5 nM
- B6 — within 1.5-fold, 3.22 nM
- B8 — 2-fold lower, 1.62 nM
- B9 — 1.7-fold lower, 1.89 nM
- B10 — 8.1-fold higher, 25.9 nM
- B11 — 7.8-fold higher, 25.1 nM
- B12 — within 1.5-fold, 4.25 nM
- B13 — 13-fold higher, 40.3 nM

Biological target: T2, PE labeled CAIX protein
Assay: FACS binding
Remark: another data set of the same source

For B14, the EC50 was 0.132 µg/mL.
